From patent US20090098111 come the findings set out here.

In series [1] the test system is GST-XtopBP1 (972-1279)-W1138R.
Series [2] relates to GST-XtopBP1 (972-1279) ΔRQLQ.
Series [3] relates to GST-XtopBP1 (972-1279) ΔWDDP.
For series [4], the system named is His6-XtopBP1 (full-length).
Series [5] has as its system His6-XtopBP1-W1138R (full-length).

Xatr (endogenous Xenopus ATR in egg extracts), sequence (chain, as listed by the source): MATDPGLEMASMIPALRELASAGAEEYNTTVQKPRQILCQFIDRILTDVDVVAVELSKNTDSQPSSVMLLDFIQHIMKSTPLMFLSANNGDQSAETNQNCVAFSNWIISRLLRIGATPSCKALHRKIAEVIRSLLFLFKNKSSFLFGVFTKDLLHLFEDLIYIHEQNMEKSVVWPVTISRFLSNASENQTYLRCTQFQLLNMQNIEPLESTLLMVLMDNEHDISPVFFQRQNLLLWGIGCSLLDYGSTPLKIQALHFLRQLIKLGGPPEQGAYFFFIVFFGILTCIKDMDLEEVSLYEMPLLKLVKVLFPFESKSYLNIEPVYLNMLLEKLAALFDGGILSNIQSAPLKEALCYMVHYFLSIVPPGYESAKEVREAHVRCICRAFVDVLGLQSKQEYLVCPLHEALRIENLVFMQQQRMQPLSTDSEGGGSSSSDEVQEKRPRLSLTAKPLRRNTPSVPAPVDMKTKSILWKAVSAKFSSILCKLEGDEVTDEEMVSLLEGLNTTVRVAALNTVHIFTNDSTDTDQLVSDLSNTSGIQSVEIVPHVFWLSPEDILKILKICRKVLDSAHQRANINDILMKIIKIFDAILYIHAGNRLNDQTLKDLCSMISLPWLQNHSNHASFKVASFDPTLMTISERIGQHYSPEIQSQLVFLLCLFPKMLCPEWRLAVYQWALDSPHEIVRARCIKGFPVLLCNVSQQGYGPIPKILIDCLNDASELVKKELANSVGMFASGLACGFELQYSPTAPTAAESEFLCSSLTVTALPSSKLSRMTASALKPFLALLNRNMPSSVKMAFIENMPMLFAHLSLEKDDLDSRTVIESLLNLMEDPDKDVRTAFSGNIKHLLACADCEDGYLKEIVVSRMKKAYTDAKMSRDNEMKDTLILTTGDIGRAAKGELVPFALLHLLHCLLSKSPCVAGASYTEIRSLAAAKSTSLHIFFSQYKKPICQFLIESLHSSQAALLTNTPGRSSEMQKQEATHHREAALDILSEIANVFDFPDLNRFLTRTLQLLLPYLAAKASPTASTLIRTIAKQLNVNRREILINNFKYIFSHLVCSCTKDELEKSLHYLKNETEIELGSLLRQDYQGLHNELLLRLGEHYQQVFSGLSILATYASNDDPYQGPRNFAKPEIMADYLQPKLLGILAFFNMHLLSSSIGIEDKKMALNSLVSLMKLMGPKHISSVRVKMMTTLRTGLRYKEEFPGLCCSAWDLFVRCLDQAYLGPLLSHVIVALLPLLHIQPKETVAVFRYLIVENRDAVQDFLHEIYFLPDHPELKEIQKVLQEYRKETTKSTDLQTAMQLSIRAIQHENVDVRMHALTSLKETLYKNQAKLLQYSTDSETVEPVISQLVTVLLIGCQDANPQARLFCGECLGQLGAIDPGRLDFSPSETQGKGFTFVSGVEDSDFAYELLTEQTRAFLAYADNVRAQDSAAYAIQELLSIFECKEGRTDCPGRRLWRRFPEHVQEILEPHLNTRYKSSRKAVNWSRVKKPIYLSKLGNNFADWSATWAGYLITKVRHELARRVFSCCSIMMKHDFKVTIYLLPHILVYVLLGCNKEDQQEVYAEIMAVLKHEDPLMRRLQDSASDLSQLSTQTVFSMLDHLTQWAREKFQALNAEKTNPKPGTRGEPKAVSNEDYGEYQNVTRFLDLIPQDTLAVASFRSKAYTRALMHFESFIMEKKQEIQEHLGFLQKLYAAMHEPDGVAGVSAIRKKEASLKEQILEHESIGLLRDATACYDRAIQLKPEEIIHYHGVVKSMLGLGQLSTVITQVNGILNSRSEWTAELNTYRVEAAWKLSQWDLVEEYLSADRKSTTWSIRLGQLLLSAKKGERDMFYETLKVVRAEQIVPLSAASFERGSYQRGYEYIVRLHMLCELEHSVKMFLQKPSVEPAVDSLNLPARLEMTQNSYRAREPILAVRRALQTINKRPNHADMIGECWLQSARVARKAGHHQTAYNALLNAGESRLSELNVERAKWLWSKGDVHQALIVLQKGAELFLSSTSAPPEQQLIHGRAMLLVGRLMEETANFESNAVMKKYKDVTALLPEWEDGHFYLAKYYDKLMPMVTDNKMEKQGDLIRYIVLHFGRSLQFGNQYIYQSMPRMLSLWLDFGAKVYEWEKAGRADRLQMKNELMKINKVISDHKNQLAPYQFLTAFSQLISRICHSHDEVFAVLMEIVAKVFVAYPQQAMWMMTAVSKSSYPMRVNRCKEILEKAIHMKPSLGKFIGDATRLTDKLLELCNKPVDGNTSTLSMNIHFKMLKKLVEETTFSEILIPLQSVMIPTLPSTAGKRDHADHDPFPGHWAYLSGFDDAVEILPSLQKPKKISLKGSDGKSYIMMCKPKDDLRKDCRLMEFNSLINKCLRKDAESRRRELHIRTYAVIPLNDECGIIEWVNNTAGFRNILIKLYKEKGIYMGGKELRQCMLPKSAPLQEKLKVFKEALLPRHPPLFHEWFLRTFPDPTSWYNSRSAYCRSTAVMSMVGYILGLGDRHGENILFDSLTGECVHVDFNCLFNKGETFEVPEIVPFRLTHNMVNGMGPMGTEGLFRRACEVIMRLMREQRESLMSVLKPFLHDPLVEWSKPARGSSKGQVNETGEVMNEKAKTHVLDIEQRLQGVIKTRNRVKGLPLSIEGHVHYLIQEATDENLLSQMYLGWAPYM
His6-XtopBP1-W1138R (full-length), sequence (chain, as listed by the source W1138R): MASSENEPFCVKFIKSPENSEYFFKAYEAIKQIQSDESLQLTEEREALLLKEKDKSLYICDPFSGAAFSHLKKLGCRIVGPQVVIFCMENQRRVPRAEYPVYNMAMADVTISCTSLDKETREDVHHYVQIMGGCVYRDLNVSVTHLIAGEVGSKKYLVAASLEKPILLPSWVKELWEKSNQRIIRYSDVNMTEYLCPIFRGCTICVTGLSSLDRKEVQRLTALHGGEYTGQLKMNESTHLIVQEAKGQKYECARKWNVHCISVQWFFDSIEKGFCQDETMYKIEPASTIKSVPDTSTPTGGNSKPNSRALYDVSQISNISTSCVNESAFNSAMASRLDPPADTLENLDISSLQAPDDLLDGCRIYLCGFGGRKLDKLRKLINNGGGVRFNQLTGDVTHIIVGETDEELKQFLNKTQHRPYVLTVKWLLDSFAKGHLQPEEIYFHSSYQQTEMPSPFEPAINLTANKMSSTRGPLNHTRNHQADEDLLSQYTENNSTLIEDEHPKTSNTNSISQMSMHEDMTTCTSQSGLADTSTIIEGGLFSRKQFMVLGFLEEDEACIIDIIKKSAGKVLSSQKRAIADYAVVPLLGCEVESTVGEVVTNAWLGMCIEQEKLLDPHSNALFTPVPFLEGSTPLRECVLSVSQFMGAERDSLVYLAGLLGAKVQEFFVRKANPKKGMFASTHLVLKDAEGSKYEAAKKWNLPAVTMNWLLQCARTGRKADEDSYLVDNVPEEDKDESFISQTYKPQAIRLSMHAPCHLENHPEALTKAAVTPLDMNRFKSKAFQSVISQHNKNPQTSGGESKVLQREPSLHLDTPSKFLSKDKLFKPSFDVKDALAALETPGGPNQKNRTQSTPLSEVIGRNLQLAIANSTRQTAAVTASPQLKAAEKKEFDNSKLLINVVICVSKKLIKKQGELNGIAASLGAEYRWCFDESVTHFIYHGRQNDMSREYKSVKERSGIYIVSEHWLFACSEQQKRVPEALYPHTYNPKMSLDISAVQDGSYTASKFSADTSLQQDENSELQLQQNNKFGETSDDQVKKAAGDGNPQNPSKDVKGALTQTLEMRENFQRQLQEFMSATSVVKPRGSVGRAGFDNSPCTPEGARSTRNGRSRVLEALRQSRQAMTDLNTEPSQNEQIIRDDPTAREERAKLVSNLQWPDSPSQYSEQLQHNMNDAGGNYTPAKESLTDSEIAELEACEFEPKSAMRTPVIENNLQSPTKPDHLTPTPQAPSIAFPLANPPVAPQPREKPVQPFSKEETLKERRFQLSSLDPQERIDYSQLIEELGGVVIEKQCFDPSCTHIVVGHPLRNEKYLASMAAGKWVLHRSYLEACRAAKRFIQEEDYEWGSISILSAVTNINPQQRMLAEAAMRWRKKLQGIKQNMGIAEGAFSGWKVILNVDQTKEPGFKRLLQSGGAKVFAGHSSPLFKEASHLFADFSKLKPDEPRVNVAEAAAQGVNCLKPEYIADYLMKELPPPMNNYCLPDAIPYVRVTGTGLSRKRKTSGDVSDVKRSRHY
GST-XtopBP1 (1197-1513), sequence (chain, as listed by the source): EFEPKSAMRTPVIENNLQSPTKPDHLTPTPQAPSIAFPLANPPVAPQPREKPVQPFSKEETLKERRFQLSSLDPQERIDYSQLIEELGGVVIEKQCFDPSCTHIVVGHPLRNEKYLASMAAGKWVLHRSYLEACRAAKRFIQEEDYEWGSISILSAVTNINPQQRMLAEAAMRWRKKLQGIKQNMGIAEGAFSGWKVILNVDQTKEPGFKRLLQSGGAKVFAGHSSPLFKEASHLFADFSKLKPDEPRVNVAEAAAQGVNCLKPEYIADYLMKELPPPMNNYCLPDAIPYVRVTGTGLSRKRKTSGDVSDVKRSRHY
GST-XtopBP1 (972-1279), sequence (chain, as listed by the source): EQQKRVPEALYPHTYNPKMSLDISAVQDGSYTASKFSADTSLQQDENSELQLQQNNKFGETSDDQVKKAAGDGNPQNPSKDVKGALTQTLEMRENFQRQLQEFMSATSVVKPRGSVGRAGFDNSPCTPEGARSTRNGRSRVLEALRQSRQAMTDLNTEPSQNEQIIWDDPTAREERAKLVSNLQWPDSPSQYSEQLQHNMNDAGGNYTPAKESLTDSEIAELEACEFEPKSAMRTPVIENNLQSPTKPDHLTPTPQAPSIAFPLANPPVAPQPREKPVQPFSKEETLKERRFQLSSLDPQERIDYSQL
GST-XtopBP1 (972-1279)-W1138R, sequence (chain, as listed by the source W1138R): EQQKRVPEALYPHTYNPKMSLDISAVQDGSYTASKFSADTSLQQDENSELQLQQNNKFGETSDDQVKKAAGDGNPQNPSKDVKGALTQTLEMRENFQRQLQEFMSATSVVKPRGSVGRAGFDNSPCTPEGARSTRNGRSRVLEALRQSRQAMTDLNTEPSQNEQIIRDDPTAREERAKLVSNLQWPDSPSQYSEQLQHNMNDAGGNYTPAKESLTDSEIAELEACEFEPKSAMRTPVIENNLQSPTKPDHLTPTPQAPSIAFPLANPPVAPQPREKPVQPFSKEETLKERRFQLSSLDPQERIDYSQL

Regarding “Xatr (endogenous Xenopus ATR in egg extracts)”, the “phosphorylation of 35S-Xchk1 in egg extracts (electrophoretic mobility)” value is reported as “none of the ΔRQLQ, ΔWDDP, or W1138R mutants of the 972-1279 fragment could induce ectopic activation of Xchk1 in these extracts” in series [1]; “the 972-1279 fragment could elicit a very robust phosphorylation of Xchk1” in the series on GST-XtopBP1 (972-1279); “none of the ΔRQLQ, ΔWDDP, or W1138R mutants of the 972-1279 fragment could induce ectopic activation of Xchk1 in these extracts” in series [2]; “none of the ΔRQLQ, ΔWDDP, or W1138R mutants of the 972-1279 fragment could induce ectopic activation of Xchk1 in these extracts” in series [3]; “the GST-XtopBP1 (1197-1513) fragment, which does not activate Xatr, did not induce any phosphorylation of Xchk1 in egg extracts” in the series on GST-XtopBP1 (1197-1513). The “checkpoint-dependent phosphorylation of Xchk1 in XtopBP1-depleted egg extracts with aphidicolin” value in series [4] was “addition of wild-type His6-XtopBP1 to the XtopBP1-depleted extract was able to rescue the phosphorylation of Xchk1 fully”; in series [5] it was “the W1138R mutant could not restore the phosphorylation of Xchk1”.
